B1: 372_H11 (antibody, V domains shown)
VH: EVQLLESGGGLVQPGGSLRLSCAASGFTFSSYGMHWVRQAPGKGLEWVAGINYNGGYTSYADSVKGRFTISRDNSKNTLYLQMNSLRAEDTAVYYCARGATWHDTHLDYWGQGTLVTVSS
VL: DIQMTQSPSSLSASVGDRVTITCRASQSILSYVNWYQQKPGKAPKLLIYAATSRASGVPSRFSGSGSGTDFTLTISSLQPEDFATYYCQQSYENPLTFGGGTKVEIK
B2: 374_D09 (antibody, V domains shown)
VH: EVQLLESGGGLVQPGGSLRLSCAASGFTFDSYGMNWVRQAPGKGLEWVANINYNGGYKGYADSVKGRFTISRDNSKNTLYLQMNSLRAEDTAVYYCARGATWHDTHLDYWGQGTLVTVSS
VL: DIQMTQSPSSLSASVGDRVTITCRASQSIISYVNWYQQKPGKAPKLLIYAATSLASGVPSRFSGSGSGTDFTLTISSLQPEDFATYYCQQSYDTPLTFGGGTKVEIK
B3: 373_D06 (antibody, V domains shown)
VH: EVQLLESGGGLVQPGGSLRLSCAASGFTFSSYSMNWVRQAPGKGLEWVAGINYNGGYTSYADSVKGRFTISRDNSKNTLYLQMNSLRAEDTAVYYCARGATWHDTHLDYWGQGTLVTVSS
VL: DIQMTQSPSSLSASVGDRVTITCRASQSIVTYLNWYQQKPGKAPKLLIYAATSRASGVPSRFSGSGSGTDFTLTISSLQPEDFATYYCQQSYDTPLTFGGGTKVEIK
B4: 374_H05 (antibody, V domains shown)
VH: EVQLLESGGGLVQPGGSLRLSCAASGFTFSSYSMNWVRQAPGKGLEWVAGINYNGGYTSYADSVKGRFTISRDNSKNTLYLQMNSLRAEDTAVYYCARGATWHDTHLDYWGQGTLVTVSS
VL: DIQMTQSPSSLSASVGDRVTITCRASQSILSYVNWYQQKPGKAPKLVIYAATSRASGVPSRFSGSGSGTDFTLTISSLQPEDFATYYCQQSYDNPLTFGGGTKVEIK
B5: 375_A03 (antibody, V domains shown)
VH: EVQLLESGGGLVQPGGSLRLSCAASGFTFDSYSMNWVRQAPGKGLEWVAGINYNGGYTSYADSVKGRFTISRDNSKNTLYLQMNSLRAEDTAVYYCARGATWHDTHLDYWGQGTLVTVSS
VL: DIQMTQSPSSLSASVGDRVTITCRASQSILTYLNWYQQKPGKAPKLLIYAATSRHSGVPSRFSGSGSGTDFTLTISSLQPEDFATYYCQQSYDNPLTFGGGTKVEIK
B6: 374_D04 (antibody, V domains shown)
VH: EVQLLESGGGLVQPGGSLRLSCAASGFTFSSYSMNWVRQAPGKGLEWVAGINYNGGYTSYADSVKGRFTISRDNSKNTLYLQMNSLRAEDTAVYYCARGATWHDTHLDYWGQGTLVTVSS
VL: DIQMTQSPSSLSASVGDRVTITCRASQSILSYLNWYQQKPGKAPKLVIYAATSRHSGVPSRFSGSGSGTDFTLTISSLQPEDFATYYCQQSYDTPLTFGGGTKVEIK
B7: 375_B03 (antibody, V domains shown)
VH: EVQLLESGGGLVQPGGSLRLSCAASGFTFSSYSMNWVRQAPGKGLEWVAGINYNGGYTSYADSVKGRFTISRDNSKNTLYLQMNSLRAEDTAVYYCARGATWHDTHLDYWGQGTLVTVSS
VL: DIQMTQSPSSLSASVGDRVTITCRASQSILTYLNWYQQKPGKAPKLLIYAATSRASGVPSRFSGSGSGTDFTLTISSLQPEDFATYYCQQSYDSPLTFGGGTKVEIK
B8: 373_F07 (antibody, V domains shown)
VH: EVQLLESGGGLVQPGGSLRLSCAASGFTFSSYSMNWVRQAPGKGLEWVSGINYNSGYKSYADSVKGRFTISRDNSKNTLYLQMNSLRAEDTAVYYCARGATWHDTHLDYWGQGTLVTVSS
VL: DIQMTQSPSSLSASVGDRVTITCRASQSILSYLNWYQQKPGKAPKLLIYAATSLASGVPSRFSGSGSGTDFTLTISSLQPEDFATYYCQQSYETPLTFGGGTKVEIK
B9: 373_B09 (antibody, V domains shown)
VH: EVQLLESGGGLVQPGGSLRLSCAASGFTFDSYSMNWVRQAPGKGLEWVSGINYNGGYKSYADSVKGRFTISRDNSKNTLYLQMNSLRAEDTAVYYCARGATWHDTHLDYWGQGTLVTVSS
VL: DIQMTQSPSSLSASVGDRVTITCRASQSILSYLNWYQQKPGKAPKLVIYAATSLASGVPSRFSGSGSGTDFTLTISSLQPEDFATYYCQQSYETPLTFGGGTKVEIK
B10: 375_C11 (antibody, V domains shown)
VH: EVQLLESGGGLVQPGGSLRLSCAASGFTFSSYSMNWVRQAPGKGLEWVSSINYNGGYTSYADSVKGRFTISRDNSKNTLYLQMNSLRAEDTAVYYCARGATWHDTHLDYWGQGTLVTVSS
VL: DIQMTQSPSSLSASVGDRVTITCRASQSILSYVNWYQQKPGKAPKLLIYAATSRHSGVPSRFSGSGSGTDFTLTISSLQPEDFATYYCQQSYDTPLTFGGGTKVEIK
B11: 374_A05 (antibody, V domains shown)
VH: EVQLLESGGGLVQPGGSLRLSCAASGFTFSDYGMNWVRQAPGKGLEWVANINYNGGYKGYADSVKGRFTISRDNSKNTLYLQMNSLRAEDTAVYYCARGATWHDTHLDYWGQGTLVTVSS
VL: DIQMTQSPSSLSASVGDRVTITCRASQSIVRYLNWYQQKPGKAPKLVIYAATSLASGVPSRFSGSGSGTDFTLTISSLQPEDFATYYCQQSYELPLTFGGGTKVEIK
B12: 374_A04 (antibody, V domains shown)
VH: EVQLLESGGGLVQPGGSLRLSCAASGFTFSSYSMNWVRQAPGKGLEWVAGINYNGGYTSYADSVKGRFTISRDNSKNTLYLQMNSLRAEDTAVYYCARGATWHDTHLDYWGQGTLVTVSS
VL: DIQMTQSPSSLSASVGDRVTITCRASQSILTYLNWYQQKPGKAPKLVIYAATSRASGVPSRFSGSGSGTDFTLTISSLQPEDFATYYCQQSYDTPLTFGGGTKVEIK
B13: 375_H08 (antibody, V domains shown)
VH: EVQLLESGGGLVQPGGSLRLSCAASGFTFSSYSMNWVRQAPGKGLEWVSGINYNGGYTSYADSVKGRFTISRDNSKNTLYLQMNSLRAEDTAVYYCARGATWHDTHLDYWGQGTLVTVSS
VL: DIQMTQSPSSLSASVGDRVTITCRASQSILTYLNWYQQKPGKAPKLLIYAATSLASGVPSRFSGSGSGTDFTLTISSLQPEDFATYYCQQSYDSPLTFGGGTKVEIK
B14: 374_G05 (antibody, V domains shown)
VH: EVQLLESGGGLVQPGGSLRLSCAASGFTFSSYSMNWVRQAPGKGLEWVSNINYNSGYKGYADSVKGRFTISRDNSKNTLYLQMNSLRAEDTAVYYCARGATWHDTHLDYWGQGTLVTVSS
VL: DIQMTQSPSSLSASVGDRVTITCRASQSIISYLNWYQQKPGKAPKLLIYAATSRASGVPSRFSGSGSGTDFTLTISSLQPEDFATYYCQQSYDLPLTFGGGTKVEIK
B15: 375_F10 (antibody, V domains shown)
VH: EVQLLESGGGLVQPGGSLRLSCAASGFTFSSYSMNWVRQAPGKGLEWVSGINYNGGYTGYADSVKGRFTISRDNSKNTLYLQMNSLRAEDTAVYYCARGATWHDTHLDYWGQGTLVTVSS
VL: DIQMTQSPSSLSASVGDRVTITCRASQSILTYLNWYQQKPGKAPKLVIYAATSRASGVPSRFSGSGSGTDFTLTISSLQPEDFATYYCQQSYDTPLTFGGGTKVEIK

In the experiment the target is Human Fc (human). In words: ELISA; negative control. A general note: In an ELISA, binding on a coated surface is turned into a signal by an enzyme label.
In the case of B1, the optical density was determined as 0.392 OD.

Turning to B2, the optical density was determined as 0.171 OD.

B3 showed an optical density of 0.192 OD.

In the case of B4, the optical density was 0.257 OD.

In turn, B5 registered an optical density of 0.203 OD.

Take B6: the optical density was 0.179 OD.

B7 showed an optical density of 0.209 OD.

Regarding B8, the optical density is 0.172 OD.

B9 had an optical density of 0.172 OD.

B10 gave an optical density of 0.199 OD.

For B11, the optical density was determined as 0.159 OD.

Take B12: the optical density turned out to be 0.275 OD.

B13 yielded an optical density of 0.204 OD.

Consider B14, for which the optical density is 0.158 OD.

As for B15, the optical density is 0.21 OD.

Values taken from patent publication US20210380703A1.
